From patent US20230257454A1 (STAIDSON BEIJING BIOPHARMACEUTICALS, published 2023)
Like-named read-outs stand apart in the source and are kept apart here.

Experiments:
[1] = molecular target: T1, human C5a (source not stated) (human, UniProt P01031 678-751); test: cell-based or functional assay
T1 sequence: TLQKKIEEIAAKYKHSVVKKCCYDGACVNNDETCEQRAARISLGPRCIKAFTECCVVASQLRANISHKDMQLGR

[2] = molecular target: T2, human recombinant C5a (human, UniProt P01031 678-751); test: ELISA, plate coated with human rC5a, scFv titrated, OD410
T2 construct: Full-length human C5a; also called rC5a; human C5a
T2 sequence: T1 sequence
Protocol: Monoclonal scFv antibodies were selected and subjected to ligand binding assays. The binding assay was designed to identify scFv antibodies that bound human recombinant C5a or endogenous C5a. Briefly, a 96-well plate was coated with human rC5a or eC5a in PBS at 0.1 µg/well and left overnight at 4° C. Before loading the scFv antibodies, the plates were washed with TBST, blocked for 1-2 hours at 37° C. using 5% milk and washed again with TBST. Each scFv sample was first diluted to 10 µg/mL, and 150 µL was added to the first row of wells. The 10 µg/mL scFv samples were then serially diluted at a 1:3 ratio and added to the remaining wells. After incubating for 1 hour at 37° C., followed by washing with TBST 6 times, 100µl of the primary antibody and secondary antibody mixture (mouse anti-flag (1:2500) and anti-mouse FC-AP (1:2000)) was added to each well. After incubation for 1 hour under 37° C., the plate was washed 3 times using TBST. pNPP was then added at 50 µL/well and incubated for 10-20 minutes at 37° C. 50 µL 3 M NaOH was used to stop the reaction. The ELISA results (OD410) were then analyzed and the binding curves were generated by PRISM.

[3] = molecular target: T1, human C5a (source not stated); test: cell-based or functional assay; remark: listed apart in the source
[4] = molecular target: T3, native full-length human complement component C5 (human, UniProt P01031 19-673; P01031 678-1676); test: ELISA, plate coated with human native C5, full-length antibody titrated, OD410
T3 construct: mature; The native protein has two disulfide-linked chains (alpha and beta) made from one precursor; also called human native C5
T3 sequence (P01031 19-673 limits assumed, one chain of several): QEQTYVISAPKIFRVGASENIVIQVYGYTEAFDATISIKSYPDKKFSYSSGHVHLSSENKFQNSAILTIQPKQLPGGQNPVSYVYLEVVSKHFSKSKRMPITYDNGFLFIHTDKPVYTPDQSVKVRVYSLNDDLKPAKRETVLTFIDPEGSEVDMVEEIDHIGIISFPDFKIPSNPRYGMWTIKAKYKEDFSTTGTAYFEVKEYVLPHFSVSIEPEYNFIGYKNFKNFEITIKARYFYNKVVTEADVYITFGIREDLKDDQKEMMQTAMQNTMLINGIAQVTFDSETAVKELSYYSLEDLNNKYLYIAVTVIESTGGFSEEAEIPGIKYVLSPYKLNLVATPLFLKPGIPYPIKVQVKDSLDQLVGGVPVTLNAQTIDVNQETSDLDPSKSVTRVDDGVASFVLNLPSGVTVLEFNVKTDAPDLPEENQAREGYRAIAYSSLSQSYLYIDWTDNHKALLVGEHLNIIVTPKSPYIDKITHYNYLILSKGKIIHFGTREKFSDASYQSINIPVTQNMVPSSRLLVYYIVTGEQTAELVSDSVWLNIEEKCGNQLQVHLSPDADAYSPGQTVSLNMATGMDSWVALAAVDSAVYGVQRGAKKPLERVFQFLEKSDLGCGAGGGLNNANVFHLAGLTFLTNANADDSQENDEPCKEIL

[5] = molecular target: T3, native full-length human complement …; test: SPR (Biacore T200), antibody on CM5 chip, antigen 0-10 nM; SPR (Biacore T200), Cab05-IgG4 on CM5 chip, C5 at 0-10 nM: no signal, given only as a lower bound on Kd
Protocol: (§1) The affinities for eC5a and c5 at various concentrations were measured. […] The concentrations of 0.625 and 0 nM were repeated once. Using the SPR technology, the association and dissociation rates were measured, and binding affinity was determined.

[6] = molecular target: T4, human endogenous C5a (human, UniProt P01031 678-751, limits assumed); test: SPR (Biacore T200), antibody on CM5 chip, antigen 0-10 nM
T4 construct: Endogenous human C5a; also called eC5a
T4 sequence: T1 sequence
Protocol: as §1

B1: Cab05 scFv (scFv, V domains shown)
VH: EMQLVESGGGLVQPGGSLRLSCAASGFTFSDYYMQWVRQAPGKGPEWVGLIRNKAVGGTTQYAASVKGRFTISRDDSKNSVYLQMNSLKTEDTAVYYCVSRAGPPGLSWGQGVLVTVSS
VL: DIVMTQSPLSLPVTPGEPASISCRSSQSLLASDGYNYIDWYLQKPGQSPQLLIYGGSNRASGVPDRFSGSGSGTDFTLKISRVEAEDVGVYFCLQHRALPPTFGQGTKLEIK
notes: scFv
For B1, the “ROS IC50” value [1] was 1.56 nM, the “EC50 (read off the curve)” value [2] was about 0.03 µg/mL and the “ROS IC50” value [3] was 1.56 nM.

B2: Cab05-IgG4 (antibody, V domains shown)
VH: B1 VH
VL: B1 VL
notes: Full-length human IgG4 with a human kappa or lambda light chain constant domain
With B2 the “EC50 (read off the curve)” value [4] was about 0.03 µg/mL, the Kd [5] was over 100 nM and the Kd [6] was 0.105 nM. For the same binder, the koff [6] was 4.22e-05 s⁻¹ and the kon [6] was 402000 M⁻¹ s⁻¹.
